Source: article PMC6108569

Molecular target: OphAΔC18
Assay: crystal structure; proteins from the dimer fractions of gel filtration chromatography, incubated with SAM, SAH or sinefungin before crystallization; hanging drop vapor diffusion unless otherwise specified; homodimer in the crystal

In the case of OphAΔC18 (enzyme), the stoichiometry N is reported as 2.
